{
  "source": "the supplement of paper PMC10065799",
  "about": "“High-throughput profiling of sequence recognition by tyrosine kinases and SH2 domains using bacterial peptide display” (eLife, 2023);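 also: 11-residue human phosphosite peptides and single-mutation variants displayed on the E. coli surface, counted by deep sequencing, each peptide's frequency after selection divided by its frequency in the unselected input library; frequency after pTyr selection over input frequency; kinase dosed for 20-30% of maximal phosphorylation in three min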",
  "data": [
    {"biological_target": "Fyn (UniProt P06241)", "sequence (P06241 whole entry, looked up)": "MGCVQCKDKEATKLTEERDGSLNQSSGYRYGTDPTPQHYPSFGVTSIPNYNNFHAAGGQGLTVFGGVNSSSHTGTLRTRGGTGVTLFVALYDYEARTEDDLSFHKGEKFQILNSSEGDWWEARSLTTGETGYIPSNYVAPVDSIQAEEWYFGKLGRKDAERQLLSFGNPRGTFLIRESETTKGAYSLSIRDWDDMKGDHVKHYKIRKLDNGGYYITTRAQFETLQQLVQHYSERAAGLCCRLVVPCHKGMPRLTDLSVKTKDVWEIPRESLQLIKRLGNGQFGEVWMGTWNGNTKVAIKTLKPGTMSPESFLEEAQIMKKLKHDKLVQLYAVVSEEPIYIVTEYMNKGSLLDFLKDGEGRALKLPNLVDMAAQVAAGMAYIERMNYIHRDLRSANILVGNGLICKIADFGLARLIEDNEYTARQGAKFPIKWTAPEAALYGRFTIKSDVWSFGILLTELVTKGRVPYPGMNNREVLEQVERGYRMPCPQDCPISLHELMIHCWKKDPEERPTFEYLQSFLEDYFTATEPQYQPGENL", "assay": "phosphorylation enrichment, bacterial display (enrichment ratio); higher = better substrate or ligand; peptides without Tyr show the background", "values": [
      {"sequence": "VGSEDYGWDLT [SPTAN1_Y1792_R1794W]", "phosphorylation enrichment": 0.384},
      {"sequence": "TLNTNYHLPPS [MT-ATP8_Y33_M28T]", "phosphorylation enrichment": 0.47},
      {"sequence": "FPMLNYKDIRK [CFAP221_Y798]", "phosphorylation enrichment": 0.493},
      {"sequence": "GGYTCYCDGKK [PROS1_Y266]", "phosphorylation enrichment": 0.403},
      {"sequence": "RDGDRYFKGIV [DCX_Y64_N60D]", "phosphorylation enrichment": 0.308},
      {"sequence": "WISNRYLDFSS [PRPH2_Y184]", "phosphorylation enrichment": 0.524},
      {"sequence": "RESYKYLPSSL [CXXC1_Y218_F219L]", "phosphorylation enrichment": 0.59},
      {"sequence": "VSSPKYGSDDE [TMCC2_Y473]", "phosphorylation enrichment": 0.556},
      {"sequence": "YDAHNYHPLPV [OAT_Y55_G51D]", "phosphorylation enrichment": 0.864},
      {"sequence": "ETRWKYHFEVV [GCNT3_Y267]", "phosphorylation enrichment": 0.439},
      {"sequence": "KRGIDYILRHM [FRMD1_Y225]", "phosphorylation enrichment": 0.414},
      {"sequence": "EWKNNCPRLRE [OPA1_Y582_Y582C]", "phosphorylation enrichment": 0.395},
      {"sequence": "GVRYTYTIDGS [DCX_Y105_I104T]", "phosphorylation enrichment": 0.543},
      {"sequence": "GLRCGYGVLGG [KRTAP20-2_Y15_Y13C]", "phosphorylation enrichment": 0.466},
      {"sequence": "TISPFYRQSLF [CRYAA_Y48_YF]", "phosphorylation enrichment": 0.437},
      {"sequence": "ADLAKYICENR [ALB_Y287_Q292R]", "phosphorylation enrichment": 0.427}
    ]},
    {"biological_target": "Fes (UniProt P07332)", "sequence (P07332 whole entry, looked up)": "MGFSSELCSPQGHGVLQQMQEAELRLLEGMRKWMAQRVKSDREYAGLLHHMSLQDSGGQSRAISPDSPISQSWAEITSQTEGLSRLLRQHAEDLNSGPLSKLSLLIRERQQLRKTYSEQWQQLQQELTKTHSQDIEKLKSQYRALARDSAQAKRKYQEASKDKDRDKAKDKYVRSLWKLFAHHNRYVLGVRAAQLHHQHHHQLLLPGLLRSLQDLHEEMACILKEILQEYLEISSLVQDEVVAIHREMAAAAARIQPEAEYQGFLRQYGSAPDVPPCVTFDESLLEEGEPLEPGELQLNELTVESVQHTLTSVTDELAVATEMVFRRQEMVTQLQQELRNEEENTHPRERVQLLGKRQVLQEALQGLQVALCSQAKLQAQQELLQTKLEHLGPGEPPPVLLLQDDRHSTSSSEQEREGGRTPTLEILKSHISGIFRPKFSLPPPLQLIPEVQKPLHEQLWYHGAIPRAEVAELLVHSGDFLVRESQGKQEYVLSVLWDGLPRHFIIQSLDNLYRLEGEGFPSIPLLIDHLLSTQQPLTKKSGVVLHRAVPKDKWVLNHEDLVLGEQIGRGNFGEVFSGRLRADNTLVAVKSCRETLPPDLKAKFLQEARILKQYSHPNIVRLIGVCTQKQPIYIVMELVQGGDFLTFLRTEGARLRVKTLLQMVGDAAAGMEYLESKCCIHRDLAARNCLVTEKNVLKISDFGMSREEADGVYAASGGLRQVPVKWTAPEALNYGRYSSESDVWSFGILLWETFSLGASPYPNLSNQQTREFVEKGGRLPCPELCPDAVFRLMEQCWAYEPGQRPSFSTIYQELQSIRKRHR", "assay": "phosphorylation enrichment, bacterial display (enrichment ratio); higher = better substrate or ligand; peptides without Tyr show the background", "values": [
      {"sequence": "VGSEDYGWDLT [SPTAN1_Y1792_R1794W]", "phosphorylation enrichment": 1.16},
      {"sequence": "TLNTNYHLPPS [MT-ATP8_Y33_M28T]", "phosphorylation enrichment": 0.587},
      {"sequence": "FPMLNYKDIRK [CFAP221_Y798]", "phosphorylation enrichment": 0.628},
      {"sequence": "GGYTCYCDGKK [PROS1_Y266]", "phosphorylation enrichment": 1.38},
      {"sequence": "RDGDRYFKGIV [DCX_Y64_N60D]", "phosphorylation enrichment": 1.1},
      {"sequence": "WISNRYLDFSS [PRPH2_Y184]", "phosphorylation enrichment": 0.946},
      {"sequence": "RESYKYLPSSL [CXXC1_Y218_F219L]", "phosphorylation enrichment": 1.17},
      {"sequence": "VSSPKYGSDDE [TMCC2_Y473]", "phosphorylation enrichment": 1.01},
      {"sequence": "YDAHNYHPLPV [OAT_Y55_G51D]", "phosphorylation enrichment": 0.685},
      {"sequence": "ETRWKYHFEVV [GCNT3_Y267]", "phosphorylation enrichment": 1.52},
      {"sequence": "KRGIDYILRHM [FRMD1_Y225]", "phosphorylation enrichment": 0.872},
      {"sequence": "EWKNNCPRLRE [OPA1_Y582_Y582C]", "phosphorylation enrichment": 1.13},
      {"sequence": "GVRYTYTIDGS [DCX_Y105_I104T]", "phosphorylation enrichment": 1.08},
      {"sequence": "GLRCGYGVLGG [KRTAP20-2_Y15_Y13C]", "phosphorylation enrichment": 0.854},
      {"sequence": "TISPFYRQSLF [CRYAA_Y48_YF]", "phosphorylation enrichment": 0.76},
      {"sequence": "ADLAKYICENR [ALB_Y287_Q292R]", "phosphorylation enrichment": 0.946}
    ]},
    {"biological_target": "EPHB2 (UniProt P29323)", "sequence (P29323 whole entry, looked up)": "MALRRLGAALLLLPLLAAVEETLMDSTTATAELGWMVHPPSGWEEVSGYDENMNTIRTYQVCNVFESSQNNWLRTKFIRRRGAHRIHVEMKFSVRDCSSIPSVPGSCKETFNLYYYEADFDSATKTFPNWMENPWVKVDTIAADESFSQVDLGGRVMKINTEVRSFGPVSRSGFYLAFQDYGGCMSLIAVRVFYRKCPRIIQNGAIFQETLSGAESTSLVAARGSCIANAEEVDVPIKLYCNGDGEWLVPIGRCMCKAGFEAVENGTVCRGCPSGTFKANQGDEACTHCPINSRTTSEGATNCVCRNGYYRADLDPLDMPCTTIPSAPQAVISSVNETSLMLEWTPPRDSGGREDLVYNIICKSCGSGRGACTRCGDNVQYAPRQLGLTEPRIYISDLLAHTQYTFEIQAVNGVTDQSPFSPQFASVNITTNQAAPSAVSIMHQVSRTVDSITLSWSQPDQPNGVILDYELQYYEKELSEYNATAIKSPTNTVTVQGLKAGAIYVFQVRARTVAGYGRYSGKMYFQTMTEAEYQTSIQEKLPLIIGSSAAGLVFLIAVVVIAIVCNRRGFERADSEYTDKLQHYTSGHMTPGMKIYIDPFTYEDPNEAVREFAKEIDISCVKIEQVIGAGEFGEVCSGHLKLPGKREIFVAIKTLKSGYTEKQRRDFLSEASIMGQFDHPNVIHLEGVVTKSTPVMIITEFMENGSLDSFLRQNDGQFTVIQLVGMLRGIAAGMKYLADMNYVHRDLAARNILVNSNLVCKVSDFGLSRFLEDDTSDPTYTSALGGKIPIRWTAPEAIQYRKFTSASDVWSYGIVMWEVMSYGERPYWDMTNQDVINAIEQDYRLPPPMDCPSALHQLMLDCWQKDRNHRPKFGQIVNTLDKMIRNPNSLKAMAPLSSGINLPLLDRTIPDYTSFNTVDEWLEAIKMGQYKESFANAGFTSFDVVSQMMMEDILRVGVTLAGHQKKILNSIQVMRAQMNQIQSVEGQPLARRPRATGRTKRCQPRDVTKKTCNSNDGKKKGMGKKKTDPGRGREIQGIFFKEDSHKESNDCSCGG", "assay": "phosphorylation enrichment, bacterial display (enrichment ratio); higher = better substrate or ligand; peptides without Tyr show the background", "values": [
      {"sequence": "VGSEDYGWDLT [SPTAN1_Y1792_R1794W]", "phosphorylation enrichment": 0.732},
      {"sequence": "TLNTNYHLPPS [MT-ATP8_Y33_M28T]", "phosphorylation enrichment": 0.451},
      {"sequence": "FPMLNYKDIRK [CFAP221_Y798]", "phosphorylation enrichment": 0.384},
      {"sequence": "GGYTCYCDGKK [PROS1_Y266]", "phosphorylation enrichment": 0.474},
      {"sequence": "RDGDRYFKGIV [DCX_Y64_N60D]", "phosphorylation enrichment": 0.427},
      {"sequence": "WISNRYLDFSS [PRPH2_Y184]", "phosphorylation enrichment": 0.535},
      {"sequence": "RESYKYLPSSL [CXXC1_Y218_F219L]", "phosphorylation enrichment": 0.616},
      {"sequence": "VSSPKYGSDDE [TMCC2_Y473]", "phosphorylation enrichment": 0.505},
      {"sequence": "YDAHNYHPLPV [OAT_Y55_G51D]", "phosphorylation enrichment": 1.62},
      {"sequence": "ETRWKYHFEVV [GCNT3_Y267]", "phosphorylation enrichment": 0.706},
      {"sequence": "KRGIDYILRHM [FRMD1_Y225]", "phosphorylation enrichment": 0.463},
      {"sequence": "EWKNNCPRLRE [OPA1_Y582_Y582C]", "phosphorylation enrichment": 0.582},
      {"sequence": "GVRYTYTIDGS [DCX_Y105_I104T]", "phosphorylation enrichment": 0.623},
      {"sequence": "GLRCGYGVLGG [KRTAP20-2_Y15_Y13C]", "phosphorylation enrichment": 0.387},
      {"sequence": "TISPFYRQSLF [CRYAA_Y48_YF]", "phosphorylation enrichment": 0.528},
      {"sequence": "ADLAKYICENR [ALB_Y287_Q292R]", "phosphorylation enrichment": 0.406}
    ]},
    {"biological_target": "EPHB1 (UniProt P54762)", "sequence (P54762 whole entry, looked up)": "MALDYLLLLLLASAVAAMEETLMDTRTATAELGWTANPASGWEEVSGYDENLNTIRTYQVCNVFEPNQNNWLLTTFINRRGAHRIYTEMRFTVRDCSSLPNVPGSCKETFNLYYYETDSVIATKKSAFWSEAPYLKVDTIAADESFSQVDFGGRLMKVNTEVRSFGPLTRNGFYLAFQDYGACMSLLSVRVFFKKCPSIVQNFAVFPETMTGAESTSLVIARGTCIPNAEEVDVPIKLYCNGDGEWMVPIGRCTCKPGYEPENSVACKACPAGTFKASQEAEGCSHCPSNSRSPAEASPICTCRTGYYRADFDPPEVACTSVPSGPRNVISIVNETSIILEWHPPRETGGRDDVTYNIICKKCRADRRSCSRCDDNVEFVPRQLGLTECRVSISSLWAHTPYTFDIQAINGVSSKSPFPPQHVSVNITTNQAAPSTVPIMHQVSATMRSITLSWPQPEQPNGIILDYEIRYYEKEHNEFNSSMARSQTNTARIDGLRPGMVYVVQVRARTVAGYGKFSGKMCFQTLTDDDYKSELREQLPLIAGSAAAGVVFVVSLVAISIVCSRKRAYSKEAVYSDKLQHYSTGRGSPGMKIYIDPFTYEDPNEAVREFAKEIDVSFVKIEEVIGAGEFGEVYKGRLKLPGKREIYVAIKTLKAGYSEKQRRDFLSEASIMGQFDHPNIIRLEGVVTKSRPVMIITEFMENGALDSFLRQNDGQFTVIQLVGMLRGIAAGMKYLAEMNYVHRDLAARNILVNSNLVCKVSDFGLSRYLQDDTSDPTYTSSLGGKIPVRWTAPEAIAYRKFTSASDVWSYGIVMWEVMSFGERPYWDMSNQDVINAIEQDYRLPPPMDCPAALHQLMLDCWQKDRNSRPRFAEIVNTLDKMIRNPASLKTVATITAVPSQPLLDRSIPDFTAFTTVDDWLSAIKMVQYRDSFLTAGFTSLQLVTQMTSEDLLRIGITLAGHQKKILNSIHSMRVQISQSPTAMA", "assay": "phosphorylation enrichment, bacterial display (enrichment ratio); higher = better substrate or ligand; peptides without Tyr show the background", "values": [
      {"sequence": "VGSEDYGWDLT [SPTAN1_Y1792_R1794W]", "phosphorylation enrichment": 0.602},
      {"sequence": "TLNTNYHLPPS [MT-ATP8_Y33_M28T]", "phosphorylation enrichment": 1.37},
      {"sequence": "FPMLNYKDIRK [CFAP221_Y798]", "phosphorylation enrichment": 0.292},
      {"sequence": "GGYTCYCDGKK [PROS1_Y266]", "phosphorylation enrichment": 0.537},
      {"sequence": "RDGDRYFKGIV [DCX_Y64_N60D]", "phosphorylation enrichment": 0.343},
      {"sequence": "WISNRYLDFSS [PRPH2_Y184]", "phosphorylation enrichment": 0.505},
      {"sequence": "RESYKYLPSSL [CXXC1_Y218_F219L]", "phosphorylation enrichment": 0.571},
      {"sequence": "VSSPKYGSDDE [TMCC2_Y473]", "phosphorylation enrichment": 0.559},
      {"sequence": "YDAHNYHPLPV [OAT_Y55_G51D]", "phosphorylation enrichment": 0.923},
      {"sequence": "ETRWKYHFEVV [GCNT3_Y267]", "phosphorylation enrichment": 0.701},
      {"sequence": "KRGIDYILRHM [FRMD1_Y225]", "phosphorylation enrichment": 0.494},
      {"sequence": "EWKNNCPRLRE [OPA1_Y582_Y582C]", "phosphorylation enrichment": 0.492},
      {"sequence": "GVRYTYTIDGS [DCX_Y105_I104T]", "phosphorylation enrichment": 0.562},
      {"sequence": "GLRCGYGVLGG [KRTAP20-2_Y15_Y13C]", "phosphorylation enrichment": 0.484},
      {"sequence": "TISPFYRQSLF [CRYAA_Y48_YF]", "phosphorylation enrichment": 0.435},
      {"sequence": "ADLAKYICENR [ALB_Y287_Q292R]", "phosphorylation enrichment": 0.537}
    ]}
  ]
}
